From article PMC6755732, “Structural, Biochemical, and In Vivo Characterization of MtrR-Mediated Resistance to Innate Antimicrobials by the Human Pathogen Neisseria gonorrhoeae” (Journal of Bacteriology, 2019)

Biological target: the molecule itself
Assay: crystal structure; hanging-drop vapor diffusion; 1.6 M Na+/K+ phosphate, 0.2 M LiSO4, 0.1 M CAPS pH 10.5; space group C2; two MtrR dimers in the asymmetric unit

B1: MtrR (natural protein)
chain: MRKTKTEALKTKEHLMLAALETFYRKGIARTSLNEIAQAAGVTRGALYWHFKNKEDLFDALFQRICDDIENCIAQDAADAEGGSWTVFRHTLLHFFERLQSNDIHYKFHNILFLKCEHTEQNAAVIAIARKHQAIWREKITAVLTEAVENQDLADDLDKETAVIFIKSTLDGLIWRWFSSGESFDLGKTAPRIIGIMMDNLENHPCLRRK
notes: also called native MtrR; WT MtrR
  binding result: binds
